Experimental data from patent US20250262210A1 (TRUSTEES OF COLUMBIA UNIVERSITY IN THE CITY OF NEW YORK, published 2025).

Key:
Assay in all cases: IP/MS, LZTR1 wild type-FLAG, U87
CRYBG1 = CRYBG1 (human, UniProt Q9Y4K1 1-2131, limits assumed)
Summary of the method: (§1)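 Read-out: spectral counts from LC-MS/MS (Orbitrap Fusion) after MaxQuant identification. Variable modifications were Met oxidation, protein N-terminal acetylation and N/Q deamidation.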

LAMB3 = molecular target: T1, LAMB3 (human, UniProt Q13751 18-1172)
T1 sequence (looked up): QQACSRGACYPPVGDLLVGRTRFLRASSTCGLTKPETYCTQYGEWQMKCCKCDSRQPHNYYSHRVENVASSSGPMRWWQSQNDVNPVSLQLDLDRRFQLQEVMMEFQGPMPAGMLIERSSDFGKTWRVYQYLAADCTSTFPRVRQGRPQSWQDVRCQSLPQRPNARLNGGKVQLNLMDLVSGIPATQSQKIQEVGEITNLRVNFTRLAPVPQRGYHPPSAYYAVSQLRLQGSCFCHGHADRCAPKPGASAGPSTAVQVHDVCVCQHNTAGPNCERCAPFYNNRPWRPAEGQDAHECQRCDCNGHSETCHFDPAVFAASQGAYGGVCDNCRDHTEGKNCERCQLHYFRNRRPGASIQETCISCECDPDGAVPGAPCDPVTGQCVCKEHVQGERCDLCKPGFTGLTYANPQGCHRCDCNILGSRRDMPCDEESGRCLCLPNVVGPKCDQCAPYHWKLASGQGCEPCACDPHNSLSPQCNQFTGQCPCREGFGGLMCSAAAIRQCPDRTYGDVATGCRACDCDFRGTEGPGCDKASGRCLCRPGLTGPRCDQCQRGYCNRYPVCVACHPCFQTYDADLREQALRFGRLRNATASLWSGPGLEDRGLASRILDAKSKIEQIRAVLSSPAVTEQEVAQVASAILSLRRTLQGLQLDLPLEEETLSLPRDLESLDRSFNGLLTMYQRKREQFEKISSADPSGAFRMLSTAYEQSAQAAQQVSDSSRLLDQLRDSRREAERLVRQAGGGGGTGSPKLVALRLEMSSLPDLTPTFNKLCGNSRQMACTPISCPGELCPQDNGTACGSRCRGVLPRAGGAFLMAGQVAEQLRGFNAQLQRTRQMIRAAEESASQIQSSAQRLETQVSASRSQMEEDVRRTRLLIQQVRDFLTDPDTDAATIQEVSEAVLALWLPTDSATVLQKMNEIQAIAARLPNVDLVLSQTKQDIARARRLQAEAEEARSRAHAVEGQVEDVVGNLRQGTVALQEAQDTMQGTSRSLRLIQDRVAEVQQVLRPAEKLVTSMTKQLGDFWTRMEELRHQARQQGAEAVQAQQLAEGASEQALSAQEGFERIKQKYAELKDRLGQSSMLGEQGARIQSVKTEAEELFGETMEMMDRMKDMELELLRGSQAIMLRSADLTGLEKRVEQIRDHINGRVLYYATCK
Summary of the method: as §1

ARFGEF1 = ARFGEF1 (human, UniProt Q9Y6D6 1-1849)
Summary of the method: as §1

KNL1 = KNL1 (human, UniProt Q8NG31 1-2342, limits assumed)
Summary of the method: as §1

PEAK1 = PEAK1 (human, UniProt Q9H792 1-1746)
Summary of the method: as §1

ARHGEF28 = ARHGEF28 (human, UniProt Q8N1W1 1-1705, limits assumed)
Summary of the method: as §1

HERC2 = HERC2 (human, UniProt O95714 1-4834)
Summary of the method: as §1

IFT172 = IFT172 (human, UniProt Q9UG01 1-1749, limits assumed)
Summary of the method: as §1

PTPN23 = PTPN23 (human, UniProt Q9H3S7 1-1636)
Summary of the method: as §1

TRIO = TRIO (human, UniProt O75962 1-3097, limits assumed)
Summary of the method: as §1

PTPN23, sequence (Q9H3S7 whole entry): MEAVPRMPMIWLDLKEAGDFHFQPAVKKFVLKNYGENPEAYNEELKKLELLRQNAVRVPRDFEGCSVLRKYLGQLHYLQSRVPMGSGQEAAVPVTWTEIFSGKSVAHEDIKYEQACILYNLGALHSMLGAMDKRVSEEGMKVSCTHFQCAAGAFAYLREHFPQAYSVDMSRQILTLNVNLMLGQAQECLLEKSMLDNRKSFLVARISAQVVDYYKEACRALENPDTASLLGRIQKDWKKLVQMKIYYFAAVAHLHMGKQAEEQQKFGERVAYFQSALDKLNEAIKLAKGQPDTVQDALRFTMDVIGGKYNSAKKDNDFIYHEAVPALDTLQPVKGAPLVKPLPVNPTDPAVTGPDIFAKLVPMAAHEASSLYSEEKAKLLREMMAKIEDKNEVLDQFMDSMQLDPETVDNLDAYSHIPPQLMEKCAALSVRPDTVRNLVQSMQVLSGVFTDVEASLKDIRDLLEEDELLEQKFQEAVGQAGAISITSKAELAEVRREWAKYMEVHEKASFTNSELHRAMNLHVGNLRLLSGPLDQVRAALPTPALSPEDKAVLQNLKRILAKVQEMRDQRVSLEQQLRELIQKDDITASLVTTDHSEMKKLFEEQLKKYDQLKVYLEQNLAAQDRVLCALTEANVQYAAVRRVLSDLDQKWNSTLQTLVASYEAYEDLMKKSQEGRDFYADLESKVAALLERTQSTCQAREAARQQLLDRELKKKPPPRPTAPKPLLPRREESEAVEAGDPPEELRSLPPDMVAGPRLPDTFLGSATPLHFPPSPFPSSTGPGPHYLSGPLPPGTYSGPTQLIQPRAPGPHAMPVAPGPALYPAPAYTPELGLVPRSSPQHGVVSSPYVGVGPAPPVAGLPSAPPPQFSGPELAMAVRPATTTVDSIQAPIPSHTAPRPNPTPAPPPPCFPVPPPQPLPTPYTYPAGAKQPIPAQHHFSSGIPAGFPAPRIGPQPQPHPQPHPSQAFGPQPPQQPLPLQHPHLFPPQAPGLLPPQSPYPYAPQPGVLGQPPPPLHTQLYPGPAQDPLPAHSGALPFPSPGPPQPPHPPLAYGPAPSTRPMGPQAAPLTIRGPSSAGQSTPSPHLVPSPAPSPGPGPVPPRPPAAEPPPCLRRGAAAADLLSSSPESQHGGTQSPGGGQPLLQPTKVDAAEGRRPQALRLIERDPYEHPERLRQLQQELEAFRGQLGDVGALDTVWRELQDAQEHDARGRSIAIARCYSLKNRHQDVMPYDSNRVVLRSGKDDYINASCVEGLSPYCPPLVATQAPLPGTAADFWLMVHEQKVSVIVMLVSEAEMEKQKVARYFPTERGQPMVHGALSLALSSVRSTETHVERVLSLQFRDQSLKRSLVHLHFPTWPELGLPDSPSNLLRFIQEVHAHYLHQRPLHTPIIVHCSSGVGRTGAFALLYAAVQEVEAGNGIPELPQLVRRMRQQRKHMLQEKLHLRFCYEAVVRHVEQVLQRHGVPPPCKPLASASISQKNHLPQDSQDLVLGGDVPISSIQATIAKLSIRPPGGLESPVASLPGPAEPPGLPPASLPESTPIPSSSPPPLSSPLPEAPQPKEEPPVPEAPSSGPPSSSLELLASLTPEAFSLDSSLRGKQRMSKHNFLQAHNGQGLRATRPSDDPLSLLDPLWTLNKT
ARFGEF1, sequence (Q9Y6D6 whole entry): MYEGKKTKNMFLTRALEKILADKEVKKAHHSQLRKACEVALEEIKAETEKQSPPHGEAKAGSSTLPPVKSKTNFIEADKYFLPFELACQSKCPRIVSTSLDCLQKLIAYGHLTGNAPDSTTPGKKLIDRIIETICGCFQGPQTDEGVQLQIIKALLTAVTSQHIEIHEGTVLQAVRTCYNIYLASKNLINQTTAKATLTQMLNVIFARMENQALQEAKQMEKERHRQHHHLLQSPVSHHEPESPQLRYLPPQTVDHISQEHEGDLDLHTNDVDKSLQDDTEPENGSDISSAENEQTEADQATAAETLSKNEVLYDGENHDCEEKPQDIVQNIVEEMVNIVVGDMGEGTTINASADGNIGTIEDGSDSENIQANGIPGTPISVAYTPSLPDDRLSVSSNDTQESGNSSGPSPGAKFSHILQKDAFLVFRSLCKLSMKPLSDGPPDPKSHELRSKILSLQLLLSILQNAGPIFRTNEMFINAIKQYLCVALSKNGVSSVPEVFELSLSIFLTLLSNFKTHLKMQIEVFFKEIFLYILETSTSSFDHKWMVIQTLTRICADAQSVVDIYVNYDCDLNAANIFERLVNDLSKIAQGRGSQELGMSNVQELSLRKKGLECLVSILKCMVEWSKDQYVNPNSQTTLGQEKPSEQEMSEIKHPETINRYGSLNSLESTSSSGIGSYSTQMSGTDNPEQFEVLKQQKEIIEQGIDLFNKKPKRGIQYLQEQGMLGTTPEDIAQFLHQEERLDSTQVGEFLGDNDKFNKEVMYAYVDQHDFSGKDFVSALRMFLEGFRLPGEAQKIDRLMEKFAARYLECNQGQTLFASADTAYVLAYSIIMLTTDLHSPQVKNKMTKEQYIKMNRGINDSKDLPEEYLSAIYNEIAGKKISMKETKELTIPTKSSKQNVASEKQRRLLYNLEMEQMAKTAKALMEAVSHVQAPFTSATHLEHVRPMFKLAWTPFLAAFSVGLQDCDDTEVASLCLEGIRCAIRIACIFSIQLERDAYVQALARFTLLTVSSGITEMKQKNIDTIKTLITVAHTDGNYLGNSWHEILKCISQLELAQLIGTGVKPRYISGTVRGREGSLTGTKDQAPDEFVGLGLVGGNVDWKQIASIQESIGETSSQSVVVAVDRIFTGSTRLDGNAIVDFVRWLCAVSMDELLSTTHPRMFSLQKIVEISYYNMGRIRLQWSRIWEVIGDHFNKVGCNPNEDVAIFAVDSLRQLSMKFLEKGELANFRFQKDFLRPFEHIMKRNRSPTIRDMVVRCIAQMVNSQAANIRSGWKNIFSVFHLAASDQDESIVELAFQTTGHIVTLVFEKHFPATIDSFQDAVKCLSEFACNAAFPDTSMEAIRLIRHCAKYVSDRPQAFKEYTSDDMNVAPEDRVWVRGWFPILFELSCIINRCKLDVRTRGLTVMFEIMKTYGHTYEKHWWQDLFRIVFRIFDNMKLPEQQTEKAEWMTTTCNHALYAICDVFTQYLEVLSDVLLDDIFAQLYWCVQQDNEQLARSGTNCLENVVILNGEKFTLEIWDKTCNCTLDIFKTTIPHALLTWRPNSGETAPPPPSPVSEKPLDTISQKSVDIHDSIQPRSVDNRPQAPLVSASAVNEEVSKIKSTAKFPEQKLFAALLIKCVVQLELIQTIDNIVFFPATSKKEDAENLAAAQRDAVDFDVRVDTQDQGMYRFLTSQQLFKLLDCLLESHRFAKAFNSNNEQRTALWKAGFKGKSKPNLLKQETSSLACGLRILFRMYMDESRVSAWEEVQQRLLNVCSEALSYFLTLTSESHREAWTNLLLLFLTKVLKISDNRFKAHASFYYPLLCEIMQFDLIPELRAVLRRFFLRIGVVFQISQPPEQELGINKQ

binding result (CRYBG1): binds | binding result (LAMB3): binds | binding result (ARFGEF1): binds | binding result (KNL1): binds | binding result (PEAK1): binds | binding result (ARHGEF28): binds | binding result (HERC2): binds | binding result (IFT172): binds | binding result (PTPN23): binds | binding result (TRIO): binds
B1: LZTR1-FLAG (other, human, UniProt Q8N653 1-840, looked up)
chain: MAGPGSTGGQIGAAALAGGARSKVAPSVDFDHSCSDSVEYLTLNFGPFETVHRWRRLPPCDEFVGARRSKHTVVAYKDAIYVFGGDNGKTMLNDLLRFDVKDCSWCRAFTTGTPPAPRYHHSAVVYGSSMFVFGGYTGDIYSNSNLKNKNDLFEYKFATGQWTEWKIEGRLPVARSAHGATVYSDKLWIFAGYDGNARLNDMWTIGLQDRELTCWEEVAQSGEIPPSCCNFPVAVCRDKMFVFSGQSGAKITNNLFQFEFKDKTWTRIPTEHLLRGSPPPPQRRYGHTMVAFDRHLYVFGGAADNTLPNELHCYDVDFQTWEVVQPSSDSEVGGAEVPERACASEEVPTLTYEERVGFKKSRDVFGLDFGTTSAKQPTQPASELPSGRLFHAAAVISDAMYIFGGTVDNNIRSGEMYRFQFSCYPKCTLHEDYGRLWESRQFCDVEFVLGEKEECVQGHVAIVTARSRWLRRKITQARERLAQKLEQEAAPVPREAPGVAAGGARPPLLHVAIREAEARPFEVLMQFLYTDKIKYPRKGHVEDVLLIMDVYKLALSFQLCRLEQLCRQYIEASVDLQNVLVVCESAARLQLSQLKEHCLNFVVKESHFNQVIMMKEFERLSSPLIVEIVRRKQQPPPRTPLDQPVDIGTSLIQDMKAYLEGAGAEFCDITLLLDGHPRPAHKAILAARSSYFEAMFRSFMPEDGQVNISIGEMVPSRQAFESMLRYIYYGEVNMPPEDSLYLFAAPYYYGFYNNRLQAYCKQNLEMNVTVQNVLQILEAADKTQALDMKRHCLHIIVHQFTKVSKLPTLRSLSQQLLLDIIDSLASHISDKQCAELGADI
notes: Expressed in HEK 293T, HeLa or U87 cells; used as cell lysate; also called LZTR1 wild type-FLAG; LZTR1 WT; not shown: FLAG tag at the C-terminus
